According to paper PMC11808123:

Key:
[1] = target: Recombinant CDK2 (human, full length), biotinylated (human) (UniProt P24941); test: BLI; no drug; conditions: domain or fragment
[2] = target: Recombinant CDK2 (human, full length), biotinylated (human) (UniProt P24941); test: BLI; with 100 nM INX-315; conditions: domain or fragment

“Recombinant cyclin A (human Cyclin A, residues 173-465)” showed a Kd [1] of 0.57 nM, a koff [1] of 0.00011 s⁻¹ and a Kd [2] of 0.24 nM. The koff [2] was 5e-05 s⁻¹.
